Source: the supplement of paper PMC5998384

Legend:
HeLa Kyoto [1] = test: solubility in G1/S (NP-40 vs SDS abundance) (log2 ratio); higher = more soluble; settings: cell cycle stage: G1/S
HeLa Kyoto [2] = test: solubility change mitosis vs G1/S (difference of NP-40 vs SDS log2 ratios) (log2 ratio difference); higher = more soluble in mitosis
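Wherever solubility change mitosis vs G1/S (difference of NP-40 vs SDS log2 ratios) is given: synchronized HeLa Kyoto cells (double thymidine block for G1/S, nocodazole release for mitosis), protein amounts in NP-40 versus SDS lysates quantified by mass spectrometry, three biological replicates.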
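Wherever solubility in G1/S (NP-40 vs SDS abundance) is given: HeLa Kyoto cells arrested at G1/S by double thymidine block, proteins quantified by TMT10plex mass spectrometry in mild NP-40 versus SDS extracts, three biological replicates.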

Sequence | solubility in G1/S (log2) (HeLa Kyoto [1]) | solubility change mitosis (log2) (HeLa Kyoto [2])
MAAAAVSSAKRSLRGELKQRLRAMSAEERLRQSRVLSQKVIAHSEYQKSKRISIFLSMQDEIETEEIIKDIFQRGKICFIPRYRFQSNHMDMVRIESPEEISLLPKTSWNIPQPGEGDVREEALSTGGLDLIFMPGLGFDKHGNRLGRGKGYYDAYLKRCLQHQEVKPYTLALAFKEQICLQVPVNENDMKVDEVLYEDSSTA [MTHFS] | 0.146 | 0.0622
MNRSRAIVQRGRVLPPPAPLDTTNLAGRRTLQGRAKMASVPVYCLCRLPYDVTRFMIECDMCQDWFHGSCVGVEEEKAADIDLYHCPNCEVLHGPSIMKKRRGSSKGHDTHKGKPVKTGSPTFVRELRSRTFDSSDEVILKPTGNQLTVEFLEENSFSVPILVLKKDGLGMTLPSPSFTVRDVEHYVGSDKEIDVIDVTRQADCKMKLGDFVKYYYSGKREKVLNVISLEFSDTRLSNLVETPKIVRKLSWVENLWPEECVFERPNVQKYCLMSVRDSYTDFHIDFGGTSVWYHVLKGEKIFYLIRPTNANLTLFECWSSSSNQNEMFFGDQVDKCYKCSVKQGQTLFIPTGWIHAVLTPVDCLAFGGNFLHSLNIEMQLKAYEIEKRLSTADLFRFPNFETICWYVGKHILDIFRGLRENRRHPASYLVHGGKALNLAFRAWTRKEALPDHEDEIPETVRTVQLIKDLAREIRLVEDIFQQNVGKTSNIFGLQRIFPAGSIPLTRPAHSTSVSMSRLSLPSKNGSKKKGLKPKELFKKAERKGKESSALGPAGQLSYNLMDTYSHQALKTGSFQKAKFNITGACLNDSDDDSPDLDLDGNESPLALLMSNGSTKRVKSLSKSRRTKIAKKVDKARLMAEQVMEDEFDLDSDDELQIDERLGKEKATLIIRPKFPRKLPRAKPCSDPNRVREPGEVEFDIEEDYTTDEDMVEGVEGKLGNGSGAGGILDLLKASRQVGGPDYAALTEAPASPSTQEAIQGMLCMANLQSSSSSPATSSLQAWWTGGQDRSSGSSSSGLGTVSNSPASQRTPGKRPIKRPAYWRTESEEEEENASLDEQDSLGACFKDAEYIYPSLESDDDDPALKSRPKKKKNSDDAPWSPKARVTPTLPKQDRPVREGTRVASIETGLAAAAAKLAQQELQKAQKKKYIKKKPLLKEVEQPRPQDSNLSLTVPAPTVAATPQLVTSSSPLPPPEPKQEALSGSLADHEYTARPNAFGMAQANRSTTPMAPGVFLTQRRPSVGSQSNQAGQGKRPKKGLATAKQRLGRILKIHRNGKLLL [PHF8] | -0.765 | 0.336
MGLSTVPDLLLPLVLLELLVGIYPSGVIGLVPHLGDREKRDSVCPQGKYIHPQNNSICCTKCHKGTYLYNDCPGPGQDTDCRECESGSFTASENHLRHCLSCSKCRKEMGQVEISSCTVDRDTVCGCRKNQYRHYWSENLFQCFNCSLCLNGTVHLSCQEKQNTVCTCHAGFFLRENECVSCSNCKKSLECTKLCLPQIENVKGTEDSGTTVLLPLVIFFGLCLLSLLFIGLMYRYQRWKSKLYSIVCGKSTPEKEGELEGTTTKPLAPNPSFSPTPGFTPTLGFSPVPSSTFTSSSTYTPGDCPNFAAPRREVAPPYQGADPILATALASDPIPNPLQKWEDSAHKPQSLDTDDPATLYAVVENVPPLRWKEFVRRLGLSDHEIDRLELQNGRCLREAQYSMLATWRRRTPRREATLELLGRVLRDMDLLGCLEDIEEALCGPAALPPAPSLLR [TNFRSF1A] | -0.165 | -0.132
MAEASSANLGSGCEEKRHEGSSSESVPPGTTISRVKLLDTMVDTFLQKLVAAGSYQRFTDCYKCFYQLQPAMTQQIYDKFIAQLQTSIREEISDIKEEGNLEAVLNALDKIVEEGKVRKEPAWRPSGIPEKDLHSVMAPYFLQQRDTLRRHVQKQEAENQQLADAVLAGRRQVEELQLQVQAQQQAWQALHREQRELVAVLREPE [PMF1] | 0.135 | 0.643
MGKSCKVVVCGQASVGKTSILEQLLYGNHVVGSEMIETQEDIYVGSIETDRGVREQVRFYDTRGLRDGAELPRHCFSCTDGYVLVYSTDSRESFQRVELLKKEIDKSKDKKEVTIVVLGNKCDLQEQRRVDPDVAQHWAKSEKVKLWEVSVADRRSLLEPFVYLASKMTQPQSKSAFPLSRKNKGSGSLDG [NKIRAS2] | -0.133 | -0.0114
MSSKMVISEPGLNWDISPKNGLKTFFSRENYKDHSMAPSLKELRVLSNRRIGENLNASASSVENEPAVSSATQAKEKVKTTIGMVLLPKPRVPYPRFSRFSQREQRSYVDLLVKYAKIPANSKAVGINKNDYLQYLDMKKHVNEEVTEFLKFLQNSAKKCAQDYNMLSDDARLFTEKILRACIEQVKKYSEFYTLHEVTSLMGFFPFRVEMGLKLEKTLLALGSVKYVKTVFPSMPIKLQLSKDDIATIETSEQTAEAMHYDISKDPNAEKLVSRYHPQIALTSQSLFTLLNNHGPTYKEQWEIPVCIQVIPVAGSKPVKVIYINSPLPQKKMTMRERNQIFHEVPLKFMMSKNTSVPVSAVFMDKPEEFISEMDMSCEVNECRKIESLENLYLDFDDDVTELETFGVTTTKVSKSPSPASTSTVPNMTDAPTAPKAGTTTVAPSAPDISANSRSLSQILMEQLQKEKQLVTGMDGGPEECKNKDDQGFESCEKVSNSDKPLIQDSDLKTSDALQLENSQEIETSNKNDMTIDILHADGERPNVLENLDNSKEKTVGSEAAKTEDTVLCSSDTDEECLIIDTECKNNSDGKTAVVGSNLSSRPASPNSSSGQASVGNQTNTACSPEESCVLKKPIKRVYKKFDPVGEILKMQDELLKPISRKVPELPLMNLENSKQPSVSEQLSGPSDSSSWPKSGWPSAFQKPKGRLPYELQDYVEDTSEYLAPQEGNFVYKLFSLQDLLLLVRCSVQRIETRPRSKKRKKIRRQFPVYVLPKVEYQACYGVEALTESELCRLWTESLLHSNSSFYVGHIDAFTSKLFLLEEITSEELKEKLSALKISNLFNILQHILKKLSSLQEGSYLLSHAAEDSSLLIYKASDGKVTRTAYNLYKTHCGLPGVPSSLSVPWVPLDPSLLLPYHIHHGRIPCTFPPKSLDTTTQQKIGGTRMPTRSHRNPVSMETKSSCLPAQQVETEGVAPHKRKIT [ICE2] | -0.234 | 0.281
